Data as given in patent publication US20240228562A1, “NOVEL LIPOCALIN MUTEINS SPECIFIC FOR CONNECTIVE TISSUE GROWTH FACTOR (CTGF)” (PIERIS PHARMACEUTICALS GMBH, priority 2021, published 2024).
Where a chain is given by its changes, count along the chain named.

T1: Murine CTGF (Mus musculus, UniProt P29268)
T1 construct: purchased Abbexa
T1 sequence (P29268 26-348): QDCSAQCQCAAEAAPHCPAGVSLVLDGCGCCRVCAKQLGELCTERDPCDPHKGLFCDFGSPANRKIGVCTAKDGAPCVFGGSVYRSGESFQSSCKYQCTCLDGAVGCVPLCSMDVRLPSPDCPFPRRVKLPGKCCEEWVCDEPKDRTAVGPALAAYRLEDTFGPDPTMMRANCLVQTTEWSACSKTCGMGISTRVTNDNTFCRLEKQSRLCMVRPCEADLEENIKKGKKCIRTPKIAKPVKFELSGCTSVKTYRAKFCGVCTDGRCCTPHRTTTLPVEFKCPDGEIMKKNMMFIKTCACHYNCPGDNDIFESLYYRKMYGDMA

T2: Rat CTGF (Rattus norvegicus, UniProt Q9R1E9)
T2 construct: purchased R&D Systems
T2 sequence (Q9R1E9 25-347): T1 sequence (P29268 26-348) with H16R, A148V

B1: SEQ ID NO: 33: optimized CTGF-binding hNGAL lipocalin mutein (protein)
chain: QDSTSDLIPAPPLSKVPLQQNFQDNQFQGKWYVVGWAGNAKLREDKQPFKMSATIYELKEDKSYDVTEVVFEQKKCHYIIKTFVPGSQPGEFTEGNYKRRPRLWSDLVRVVSTNYNQHAMVFFKKVHQNREFFWITLYGRTKELTSELKENFIRFSKSLGLPENHIVFPVPIDQCIDG
modifications: lipocalin mutein
B2: SEQ ID NO: 22: optimized CTGF-binding hNGAL lipocalin mutein (protein)
chain: QDSTSDLIPAPPLSKVPLQQNFQDNQFQGKWYVVGIAGNAILRVDKQPAKMFATIYELKEDKSYDVTSVRFEAKSCVYTIKTFVPGSQPGEFTAGNIKSAPGQTSTLVRVVSTNYNQHAMVFFKHVSQNREIFVITLYGRTKELTSELKENFIRFSKSLGLPENHIVFPVPIDQCIDG
modifications: lipocalin mutein
B3: SEQ ID NO: 32: optimized CTGF-binding hNGAL lipocalin mutein (protein)
chain: QDSTSDLIPAPPLSKVPLQQNFQDNQFQGKWYVVGWAGNVKLREDKQPFKMSATIYELKEDKSYDVTEVVFEQKKCHYIIKTFVPGSQPGEFTLSPISSSPGLVSHLVRVVSTNYNQHAMVFFKKVHQNREFFWITLYGRTKELTSELKENFIRFSKSLGLPENHIVFPVPIDQCIDG
modifications: lipocalin mutein
B4: SEQ ID NO: 35: optimized CTGF-binding hNGAL lipocalin mutein (protein)
chain: B3 chain with F49L, L94A, S95G, P96D, S98K, S100P, L103Y, V104T, H106S, H127S
modifications: lipocalin mutein
B5: SEQ ID NO: 10: optimized CTGF-binding hNGAL lipocalin mutein (protein)
chain: QDSTSDLIPAPPLSKVPLQQNFQDNQFQGKWYVVGLAGNAILREDKQPAKMFATIYELKEDKSYDVTSVRFEAKSCSYTIKTFVPGSQPGEFTAGNIKSAPGQTSTLVRVVSTNYNQHAMVFWKSVAGTRESFNIALYGRTKELTSELKENFIRFSKSLGLPENHIVFPVPIDQCIDG
modifications: lipocalin mutein

Test system: not listed separately
Assay: Thermal stability assessment by nanoDSC
Format: physicochemical
Conditions: 1 mg/mL in PBS, scan 25-100° C. at 1° C./min
Method: To determine the melting temperatures (Tms) of the lipocalin muteins, which is a general indicator for folding stability, the CTGF specific muteins, at a protein concentration of 1 mg/mL in PBS (Gibco), were scanned (25-100° C.) at 1° C./min using a capillary nanoDSC instrument (CSC 6300, TA Instruments). […] Several unfolding events can contribute to the observed thermogram. In cases with multiple transitions, the one with the major unfolding energy best represents the overall protein fold and is reported. Muteins were produced as described in Example 3. SEQ ID NOs: 3, 7, 9, 25, and 29 were expressed using E. coli, the other muteins were expressed using CHO cells.
The resulting maximum melting temperatures as well as the onset temperature of melting for exemplary lipocalin muteins and fusion proteins are listed in Table 3 below.

Molecule | ONSET MELTING
B1 | 56 °C
B2 | 59 °C
B3 | 62 °C
B4 | 63 °C
B5 | 50 °C

Same assay, conditions: 1 mg/mL in PBS, scan 25-100° C. at 1° C./min, major transition

Molecule | TM
B1 | 72 °C
B2 | 73 °C
B3 | 79 °C
B4 | 78 °C
B5 | 66 °C

Target: T3, human CTGF (Homo sapiens, UniProt P29279)
T3 construct: purchased Creative Biomart
Assay: SPR binding kinetics and affinity, human CTGF
Conditions: 25° C., 1:1 binding model
Method: (§1) Surface plasmon resonance (SPR) was used to measure binding kinetics and affinity of the representative lipocalin muteins disclosed herein.
(§2) The binding of exemplary lipocalin muteins to human (Creative Biomart), cynomolgus, rat (R&D Systems) and mouse CTGF (Abbexa) was determined by SPR using a Biacore instrument (Cytiva, formerly GE Healthcare). Some targets were fused to a human IgG1 Fc tag, and captured via the anti-human IgG antibody kit, others were directly immobilized.
(§3) For some measurements, human CTGF with a human IgG1 Fc Tag or rat or murine CTGF without a tag were directly immobilized to a CM5 Chip. The carboxyl groups on the chip were activated using 1-ethyl-3-(3-dimethylaminopropyl)-carbodiimide (EDC) and N-hydroxysuccinimide (NHS). Subsequently, the targets at a concentration of 3-5 μg/mL in 10 mM sodium acetate (pH) 4.5 were applied at a flow rate of 10 μL/min until an immobilization level of 300-1100 resonance units was achieved. Residual non-reacted NHS-esters were blocked by passing a solution of 1 M ethanolamine across the surface. The reference channel was activated/deactivated. For the capture setting, targets with an IgG Fc Tag at 0.25-2.5 μg/mL in HBS-EP+ buffer were captured by the anti-human IgG-Fc antibody at the chip surface for 180 s at a flow rate of 10 μL/min.
(§4) The binding assay was carried out with a contact time of 180 s, a dissociation time of 900-3600 s and a flow rate of 30 μL/min. All measurements were performed at 25° C. […] For the directly immobilized targets, the same regeneration conditions were used. Prior to the protein measurements, three startup cycles were performed for conditioning purposes. Data were evaluated with Biacore Evaluation software. Double referencing was used and the 1:1 binding model was used to fit the raw data.

T3 sequence (P29279 with tags, fused parts or gaps H83D): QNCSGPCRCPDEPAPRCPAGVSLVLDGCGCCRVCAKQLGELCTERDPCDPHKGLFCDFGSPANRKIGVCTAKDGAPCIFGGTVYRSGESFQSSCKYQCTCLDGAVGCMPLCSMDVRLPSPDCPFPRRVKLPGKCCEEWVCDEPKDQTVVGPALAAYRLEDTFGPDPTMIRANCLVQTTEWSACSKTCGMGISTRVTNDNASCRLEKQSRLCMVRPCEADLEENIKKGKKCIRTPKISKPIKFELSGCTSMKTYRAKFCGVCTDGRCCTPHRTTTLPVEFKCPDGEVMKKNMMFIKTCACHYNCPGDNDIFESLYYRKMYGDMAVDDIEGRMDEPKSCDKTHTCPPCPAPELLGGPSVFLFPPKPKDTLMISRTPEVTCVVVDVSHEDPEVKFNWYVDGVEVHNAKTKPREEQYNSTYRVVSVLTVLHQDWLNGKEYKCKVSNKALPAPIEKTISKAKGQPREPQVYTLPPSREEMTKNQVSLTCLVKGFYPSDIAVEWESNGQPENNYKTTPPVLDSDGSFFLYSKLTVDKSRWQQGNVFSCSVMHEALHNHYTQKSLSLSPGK

human CTGF koff | Molecule
1.71e-05 s⁻¹ | B1
8.05e-06 s⁻¹ | B2
6.39e-05 s⁻¹ | B3
5.94e-05 s⁻¹ | B4
2.23e-06 s⁻¹ | B5

Target: T4, human CTGF (Homo sapiens, UniProt P29279, H83D)
T4 construct: purchased Creative Biomart
Assay: SPR binding kinetics and affinity, human CTGF
Conditions: 25° C., 1:1 binding model
Method: as §1, §2, §3, §4

T4 sequence (P29279 with tags, fused parts or gaps H83D): as above

human CTGF kon | Molecule
172000 M⁻¹ s⁻¹ | B1
142000 M⁻¹ s⁻¹ | B2
109000 M⁻¹ s⁻¹ | B3
108000 M⁻¹ s⁻¹ | B4
67700 M⁻¹ s⁻¹ | B5

Target: T1, Murine CTGF
Assay: SPR binding kinetics and affinity, murine CTGF
Parameters: key to Murine CTGF kon / Murine CTGF koff / Murine CTGF KD: B binding without determination of kinetics constants
Conditions: 25° C., 1:1 binding model
Method: as §1, §2, §3, §4
(§5) The values determined for kon, koff and the resulting equilibrium dissociation constant (KD) for exemplary lipocalin muteins are summarized in Table 4.

Murine CTGF koff | Murine CTGF kon | Murine CTGF KD | Molecule
5.29e-05 s⁻¹ | 176000 M⁻¹ s⁻¹ |  | B1
B | B | B | B2
0.000264 s⁻¹ | 133000 M⁻¹ s⁻¹ |  | B3
0.000287 s⁻¹ | 128000 M⁻¹ s⁻¹ |  | B4
B | B | B | B5

Target: T2, Rat CTGF
Assay: SPR binding kinetics and affinity, rat CTGF
Conditions: 25° C., 1:1 binding model
Method: as §1, §2, §3, §4, §5

Rat CTGF koff | Rat CTGF kon | Molecule
6.3e-05 s⁻¹ | 279000 M⁻¹ s⁻¹ | B1
4.01e-05 s⁻¹ | 181000 M⁻¹ s⁻¹ | B2
0.000273 s⁻¹ | 193000 M⁻¹ s⁻¹ | B4
4.08e-05 s⁻¹ | 88800 M⁻¹ s⁻¹ | B5
